In the RNAGym collection of RNA variant scans (doi:10.1073/pnas.2313332121):

B1: TPR t1 (parent)
chain: GACCAAUCUGCCCUCAGAGCUCGAGAACAUCUUCGGAUGCAGAGGAGGCAGGCUUCGGUGGCGCGAUAGCGCCAACGUCCUCAACCUCCAAUGCAUCCCACCACAUGAUGAUGCCUGAAGAGCCUUGGUUUUUUG

Variants of: B1
Assay: polymerase ribozyme fitness, log enrichment relative to wild type (log ratio); higher = more active; in vitro selection for triplet polymerase activity
In short: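 In triplicate, a single round of in vitro selection was run on each mutant library, PCR-built and transcribed, covering one subunit of a heterodimeric triplet polymerase ribozyme. Frozen incubation at −7 °C followed annealing with a biotinylated primer, partner subunit and triplets, and extended constructs were then gel-excised, streptavidin-captured and taken through RT-PCR. Fitness is the logarithm of genotype enrichment over wild-type enrichment, from inverse-variance-weighted replicate averages of Illumina-sequenced inputs and outputs. […] only genotypes with ≥10 input reads and ≥1 read per output were kept.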

Q: Which “polymerase ribozyme fitness (log ratio)” value does the source give for GACCAAUCUGCCCUCAGAGCUCGAGAACAUCUUCGGAUGCAGAGGAGGCAGGCUUCGGUGACGCGAUAGCGCCAACGUCCUUAACCUCCAAUGCAUCCCACCACAUGAUGAUGCCUGAAGAGCCUUGGUUUUUUG [G61A C82U] here?
A: The value was 0.141.

Q: Which “polymerase ribozyme fitness (log ratio)” value does the source give for GACCAAUCUGCCCUCAGAGCUCGAGAACAUCUUCGGAUGCAGAGGAGGCAGGCUUCGGUGACGCGAUAGCGCCAACGUCCUAAACCUCCAAUGCAUCCCACCACAUGAUGAUGCCUGAAGAGCCUUGGUUUUUUG [G61A C82A] here?
A: Its value is -0.883.

Q: For GACCAAUCUGCCCUCAGAGCUCGAGAACAUCUUCGGAUGCAGAGGAGGCAGGCUUCGGUGACGCGAUAGCGCCAACGUCCUGAACCUCCAAUGCAUCCCACCACAUGAUGAUGCCUGAAGAGCCUUGGUUUUUUG [G61A C82G], which “polymerase ribozyme fitness (log ratio)” value is on record?
A: Its value is -1.29.

Q: For GACCAAUCUGCCCUCAGAGCUCGAGAACAUCUUCGGAUGCAGAGGAGGCAGGCUUCGGUGACGCGAUAGCGCCAACGUCCUCAACCUCCAAUGCAUCCCACCACAUGAUGAUGCAUGAAGAGCCUUGGUUUUUUG [G61A C115A], which “polymerase ribozyme fitness (log ratio)” value is on record?
A: The value was 0.519.

Q: For GACCAAUCUGCCCUCAGAGCUCGAGAACAUCUUCGGAUGCAGAGGAGGCAGGCUUCGGUGACGCGAUAGCGCCAACGUCCUCAACCUCCAAUGCAUCCCACCACAUGAUGAUGCUUGAAGAGCCUUGGUUUUUUG [G61A C115U], which “polymerase ribozyme fitness (log ratio)” value is on record?
A: Its value is -0.993.

Q: With GACCAAUCUGCCCUCAGAGCUCGAGAACAUCUUCGGAUGCAGAGGAGGCAGGCUUCGGUGACGCGAUAGCGCCAACGUCCUCAACCUGCAAUGCAUCCCACCACAUGAUGAUGCCUGAAACGCCUUGGUUUUUUG [G61A C88G G120A A121C] as the variant, how does the “polymerase ribozyme fitness (log ratio)” value read?
A: The value was -1.75.

Q: With GACCAAUCUGCCCUCAGAGCUCGAGAACAUCUUCGGAUGCAGAGGAGGCAGGCUUCGGUGACGCGAUAGCGCCAACGUCCUCAACCUACAAUGCAUCCCACCACAUGAUGAUGCCUGAAGAGCCUUGGUUUUUUG [G61A C88A] as the variant, how does the “polymerase ribozyme fitness (log ratio)” value read?
A: Its value is -0.575.

Q: For GACCAAUCUGCCCUCAGAGCUCGAGAACAUCUUCGGAUGCAGAGGAGGCAGGCUUCGGUGACUCGAUAGCGCCAACGUCCUCAACCUCCAAUGCAUCCCACCACAUGAUGAUGCCUGAAGAGCCUUGGUUUUUUG [G61A G63U], which “polymerase ribozyme fitness (log ratio)” value is on record?
A: Its value is -3.75.

Q: Which “polymerase ribozyme fitness (log ratio)” value does the source give for GACCAAUCUGCCCUCAGAGCUCGAGAACAUCUUCGGAUGCAGAGGAGGCAGGCUUCGGUGACGCGAUAGCGCCAACGUCCUCAAUCUCCAAUGCAUCCCACCACAUGAUGAUGCCUAAAGAGCCUUGGCUUUUUG [G61A C85U G117A U129C] here?
A: Its value is -2.75.

Q: Which “polymerase ribozyme fitness (log ratio)” value does the source give for GACCAAUCUGCCCUCAGAGCUCGAGAACAUCUUCGGAUGCAGAGGAGGCAGGCUUCGGUGACGCGAUAGCGCCAACGUCCUCAACCUCCAAUGCAUCCUACCACAUGAUGAUGCCUGAAGAGCCUUGGUUUUUUG [G61A C99U] here?
A: The value was -2.85.

Q: With GACCAAUCUGCCCUCAGAGCUCGAGAACAUCUUCGGAUGCAGAGGAGGCAGGCUUCGGUGACGCGAUAGCACCAACGUCCUCAACCUCCAAUGCAUCCCACCACAUGAUGAUGCCUGAAGAGCCUUGGUUUUUUG [G61A G71A] as the variant, how does the “polymerase ribozyme fitness (log ratio)” value read?
A: The value was -2.39.

Q: Which “polymerase ribozyme fitness (log ratio)” value does the source give for GACCAAUCUGCCCUCAGAGCUCGAGAACAUCUUCGGAUGCAGAGGAGGCAGGCUUCGGUGACGCGAUAGCGCCAACGUUCUCAACCUCCAAUGCAUCCCACCACAUGAUGAUGCAUGAAAAGCCUUGGUUUUUUG [G61A C79U C115A G120A] here?
A: Its value is -0.74.

Q: With GACCAAUCUGCCCUCAGAGCUCGAGAACAUCUUCGGAUGCAGAGGAGGCAGGCUUCGGUGACGCGAUAGCUCCAACGUCCUCAACCUCCAAUGCUUCCCACCACAGGAUGAUGCCUGAAUAGCCUUGGUUUUUUG [G61A G71U A95U U106G G120U] as the variant, how does the “polymerase ribozyme fitness (log ratio)” value read?
A: The value was -5.9.

Q: With GACCAAUCUGCCCUCAGAGCUCGAGAACAUCUUCGGAUGCAGAGGAGGCAGGCUUCGGUGACGCGAUAGCGCUAAUGUCCUCAACCUCCAAUGCAUCCCACCACAUGAUGAUGCCUGAAGAGCCUUGGUUUUUUG [G61A C73U C76U] as the variant, how does the “polymerase ribozyme fitness (log ratio)” value read?
A: Its value is -3.66.

Q: Which “polymerase ribozyme fitness (log ratio)” value does the source give for GACCAAUCUGCCCUCAGAGCUCGAGAACAUCUUCGGAUGCAGAGGAGGCAGGCUUCGGUGACGCGAUAGCGCUAACGACCUCAACCUCCAAUGCAUCCCACCACAUGAUGAUGACUGAAGAGCCUUGGUUUUUUG [G61A C73U U78A C114A] here?
A: The value was -2.49.

Q: With GACCAAUCUGCCCUCAGAGCUCGAGAACAUCUUCGGAUGCAGAGGAGGCAGGCUUCGGUGACGCGAUAGCGCCAACGUCCUGAACCUCCAAUGCAUCCCACCACCUGAUGAUGCCUGAAGAGCCUUGGUUUUUUG [G61A C82G A105C] as the variant, how does the “polymerase ribozyme fitness (log ratio)” value read?
A: The value was -2.79.

Q: For GACCAAUCUGCCCUCAGAGCUCGAGAACAUCUUCGGAUGCAGAGGAGGCAGGCUUCGGUGACGCGAUAGCGCCAACGUCUUCAACCUCCAAUGCAUCCCACCACUUGAUGAUGCCUGAAGAGCCUUGGUUUUUUG [G61A C80U A105U], which “polymerase ribozyme fitness (log ratio)” value is on record?
A: Its value is -3.51.

Q: Which “polymerase ribozyme fitness (log ratio)” value does the source give for GACCAAUCUGCCCUCAGAGCUCGAGAACAUCUUCGGAUGCAGAGGAGGCAGGCUUCGGUGACGCGAUAGCGCCAACGUCCUCAACAUCCAAUGCAUCCCACCACAUGAUGAUGCCUGAAGAGCCUUGGUUUUUUG [G61A C86A] here?
A: The value was -0.514.

Q: With GACCAAUCUGCCCUCAGAGCUCGAGAACAUCUUCGGAUGCAGAGGAGGCAGGCUUCGGUGACGCGAUAGCGCCAAUGUCCUCAACCUCCAAUGCAUUCCACCACAUGAUGAUGCCUGAAGAGCCUUGGUUUUUUG [G61A C76U C97U] as the variant, how does the “polymerase ribozyme fitness (log ratio)” value read?
A: The value was -4.24.

Q: With GACCAAUCUGCCCUCAGAGCUCGAGAACAUCUUCGGAUGCAGAGGAGGCAGGCUUCGGUGACGCGAUAGCGCCAACGUCCUCAACCUCCAAUGUAUCCCACCACAUGAUGAUGCCUGAAGAGCCUUGGUUUUUUG [G61A C94U] as the variant, how does the “polymerase ribozyme fitness (log ratio)” value read?
A: Its value is -0.0774.

Q: Which “polymerase ribozyme fitness (log ratio)” value does the source give for GACCAAUCUGCCCUCAGAGCUCGAGAACAUCUUCGGAUGCAGAGGAGGCAGGCUUCGGUGACGCGAUAGCGCCAACGUCCUCAACCUCCAAUGAAUCCCACCACAUGAUGAUGCCUGAAGAGCCUUGGUUUUUUG [G61A C94A] here?
A: The value was -0.27.
